Measured values as given in PMC12455940.

Target: leader of the capsid (LC) protein from Feline calicivirus (Feline calicivirus, Urbana strain)
Test: non-reducing SDS-PAGE and western blot; total protein extracts (RIPA) of FCV-infected CrFK cells, MOI of 5, 1 to 9 hpi; Laemmli buffer without β-ME; detected with anti-LC serum; also cells untreated or treated with 5 µM 16F16

## leader of the capsid (LC) protein from Feline calicivirus (natural protein)
  stoichiometry N: 2
